Test results from paper PMC8288147.

Molecular target: Hepatitis B Surface Antigen (HBsAg) SpyCatcher nanoparticles (Hepatitis B virus)
Test: covalent SpyTag/SpyCatcher conjugation shown by reduced SDS-PAGE

With “RBD-SpyTag (SARS-CoV-2 receptor binding domain fused to the SpyTag peptide) (from UniProt P0DTC2) (domain or fragment)” the fraction unconjugated was under 20%.
